Assay results from article PMC9036120.
Where two headings read alike, the source gives them in different places.

T1: PPARA;RXRA (mouse;mouse, UniProt P23204;P28700 1-468;1-467, |)
T1 sequence 1: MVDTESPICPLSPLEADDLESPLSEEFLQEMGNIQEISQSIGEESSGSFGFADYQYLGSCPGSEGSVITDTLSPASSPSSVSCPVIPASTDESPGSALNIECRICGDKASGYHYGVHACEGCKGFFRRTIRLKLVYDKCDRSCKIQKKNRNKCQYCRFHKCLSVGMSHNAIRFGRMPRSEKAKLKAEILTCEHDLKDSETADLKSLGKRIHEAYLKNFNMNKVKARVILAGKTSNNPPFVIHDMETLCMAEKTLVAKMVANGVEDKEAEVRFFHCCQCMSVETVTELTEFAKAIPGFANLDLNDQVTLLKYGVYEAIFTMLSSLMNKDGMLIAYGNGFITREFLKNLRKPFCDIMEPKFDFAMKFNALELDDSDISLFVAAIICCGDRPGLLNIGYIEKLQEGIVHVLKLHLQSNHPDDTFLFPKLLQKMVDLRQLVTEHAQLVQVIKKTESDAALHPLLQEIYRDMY
T1 sequence 2: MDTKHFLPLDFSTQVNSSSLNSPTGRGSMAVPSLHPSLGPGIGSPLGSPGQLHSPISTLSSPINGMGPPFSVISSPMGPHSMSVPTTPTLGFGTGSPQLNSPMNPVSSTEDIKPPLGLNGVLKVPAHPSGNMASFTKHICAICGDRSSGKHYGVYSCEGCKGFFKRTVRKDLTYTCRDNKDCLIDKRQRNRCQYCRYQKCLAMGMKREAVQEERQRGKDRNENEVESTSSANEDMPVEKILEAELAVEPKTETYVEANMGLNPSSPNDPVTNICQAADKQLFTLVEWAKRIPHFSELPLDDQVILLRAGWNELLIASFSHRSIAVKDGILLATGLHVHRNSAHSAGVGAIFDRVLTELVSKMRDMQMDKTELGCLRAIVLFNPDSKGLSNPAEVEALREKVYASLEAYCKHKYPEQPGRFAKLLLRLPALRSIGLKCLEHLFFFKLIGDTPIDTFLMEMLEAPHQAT

B1: Ppara-PPRE6 (dsDNA)
DNA 1: AAGTTTCAATGACCTTTGGGACAGTTAACTA
DNA 2: TAGTTAACTGTCCCAAAGGTCATTGAAACTT
B2: E2f8-PPRE4 (dsDNA)
DNA 1: AGGCCCAGTAGGTTAAAGGGCTGACATTTTA
DNA 2: TAAAATGTCAGCCCTTTAACCTACTGGGCCT
B3: Control (Acox1)-PPRE (dsDNA)
DNA 1: TCCCGAACGTGACCTTTGTCCTGGTCCCCTG
DNA 2: CAGGGGACCAGGACAAAGGTCACGTTCGGGA

Key:
PPARA;RXRA [1] = biological target: T1, PPARA;RXRA; experiment: EMSA
PPARA;RXRA [2] = biological target: T1, PPARA;RXRA; experiment: EMSA; remark: listed apart in the source

Binder	binding result (PPARA;RXRA [1])	binding result (PPARA;RXRA [2])
B1	binds	
B2	binds	
B3		binds
